Source: patent publication US20250361282A1 (Bayer, published 2025)
Each block holds one binder with its values, some of them ahead of it.

What was measured:
Assay in all cases: cell-based or functional assay
rat NPR-A = target: T1, rat NPR-A (rat, UniProt P18910 29-1057)
T1 sequence (looked up): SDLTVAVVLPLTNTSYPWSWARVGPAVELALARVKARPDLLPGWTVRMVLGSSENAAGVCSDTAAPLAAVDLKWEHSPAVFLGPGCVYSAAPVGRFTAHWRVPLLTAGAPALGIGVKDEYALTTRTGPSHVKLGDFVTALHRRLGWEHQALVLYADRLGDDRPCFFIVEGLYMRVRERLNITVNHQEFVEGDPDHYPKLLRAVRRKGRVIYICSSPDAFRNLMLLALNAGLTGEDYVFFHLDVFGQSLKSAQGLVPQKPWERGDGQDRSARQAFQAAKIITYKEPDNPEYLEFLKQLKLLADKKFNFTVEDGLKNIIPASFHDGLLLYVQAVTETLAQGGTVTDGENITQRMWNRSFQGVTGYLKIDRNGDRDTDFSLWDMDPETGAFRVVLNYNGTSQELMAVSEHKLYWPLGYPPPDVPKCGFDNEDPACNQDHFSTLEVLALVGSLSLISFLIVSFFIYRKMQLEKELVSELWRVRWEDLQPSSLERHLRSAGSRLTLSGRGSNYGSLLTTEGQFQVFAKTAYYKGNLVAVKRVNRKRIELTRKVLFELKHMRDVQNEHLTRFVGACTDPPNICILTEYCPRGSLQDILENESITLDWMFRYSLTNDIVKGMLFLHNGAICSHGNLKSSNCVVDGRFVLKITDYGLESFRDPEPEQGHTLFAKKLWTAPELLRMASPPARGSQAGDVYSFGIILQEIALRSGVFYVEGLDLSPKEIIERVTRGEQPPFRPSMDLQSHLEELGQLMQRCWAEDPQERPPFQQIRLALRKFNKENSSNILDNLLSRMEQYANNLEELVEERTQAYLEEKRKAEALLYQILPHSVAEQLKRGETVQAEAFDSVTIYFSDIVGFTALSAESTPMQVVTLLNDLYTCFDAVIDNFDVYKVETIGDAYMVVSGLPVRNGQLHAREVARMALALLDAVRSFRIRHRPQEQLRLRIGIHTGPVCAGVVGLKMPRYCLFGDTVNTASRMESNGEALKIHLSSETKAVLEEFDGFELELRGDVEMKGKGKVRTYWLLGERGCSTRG

rat NPR-B = target: T2, rat NPR-B (rat, UniProt P16067 17-1047)
T2 sequence (looked up): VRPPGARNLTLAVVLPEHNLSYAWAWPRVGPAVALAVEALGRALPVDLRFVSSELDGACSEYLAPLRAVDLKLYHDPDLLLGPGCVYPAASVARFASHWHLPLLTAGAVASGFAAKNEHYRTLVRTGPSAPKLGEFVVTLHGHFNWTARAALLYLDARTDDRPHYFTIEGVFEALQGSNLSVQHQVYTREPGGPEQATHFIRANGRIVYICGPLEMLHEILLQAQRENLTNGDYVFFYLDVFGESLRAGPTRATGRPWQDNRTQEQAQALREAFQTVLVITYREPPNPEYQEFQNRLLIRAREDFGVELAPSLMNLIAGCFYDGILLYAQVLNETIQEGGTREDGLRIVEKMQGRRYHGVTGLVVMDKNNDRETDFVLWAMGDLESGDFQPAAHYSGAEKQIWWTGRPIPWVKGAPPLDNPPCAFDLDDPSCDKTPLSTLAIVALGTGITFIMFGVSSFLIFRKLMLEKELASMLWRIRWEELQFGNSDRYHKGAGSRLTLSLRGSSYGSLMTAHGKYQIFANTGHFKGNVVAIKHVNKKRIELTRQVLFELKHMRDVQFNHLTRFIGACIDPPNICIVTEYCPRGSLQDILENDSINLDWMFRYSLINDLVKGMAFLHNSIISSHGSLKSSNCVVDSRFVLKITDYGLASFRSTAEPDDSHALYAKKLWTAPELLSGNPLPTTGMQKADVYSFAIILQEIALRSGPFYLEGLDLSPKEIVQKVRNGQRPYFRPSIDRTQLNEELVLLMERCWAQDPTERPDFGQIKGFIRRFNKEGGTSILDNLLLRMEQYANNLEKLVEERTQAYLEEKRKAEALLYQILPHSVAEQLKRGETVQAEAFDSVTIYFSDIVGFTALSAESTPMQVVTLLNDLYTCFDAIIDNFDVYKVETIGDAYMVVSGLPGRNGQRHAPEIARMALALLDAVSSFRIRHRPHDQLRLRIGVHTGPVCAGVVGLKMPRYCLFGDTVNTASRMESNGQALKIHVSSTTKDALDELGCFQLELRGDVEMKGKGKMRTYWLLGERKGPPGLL

human NPRA = target: T3, human NPRA (human, UniProt P16066 33-1061)
T3 sequence (looked up): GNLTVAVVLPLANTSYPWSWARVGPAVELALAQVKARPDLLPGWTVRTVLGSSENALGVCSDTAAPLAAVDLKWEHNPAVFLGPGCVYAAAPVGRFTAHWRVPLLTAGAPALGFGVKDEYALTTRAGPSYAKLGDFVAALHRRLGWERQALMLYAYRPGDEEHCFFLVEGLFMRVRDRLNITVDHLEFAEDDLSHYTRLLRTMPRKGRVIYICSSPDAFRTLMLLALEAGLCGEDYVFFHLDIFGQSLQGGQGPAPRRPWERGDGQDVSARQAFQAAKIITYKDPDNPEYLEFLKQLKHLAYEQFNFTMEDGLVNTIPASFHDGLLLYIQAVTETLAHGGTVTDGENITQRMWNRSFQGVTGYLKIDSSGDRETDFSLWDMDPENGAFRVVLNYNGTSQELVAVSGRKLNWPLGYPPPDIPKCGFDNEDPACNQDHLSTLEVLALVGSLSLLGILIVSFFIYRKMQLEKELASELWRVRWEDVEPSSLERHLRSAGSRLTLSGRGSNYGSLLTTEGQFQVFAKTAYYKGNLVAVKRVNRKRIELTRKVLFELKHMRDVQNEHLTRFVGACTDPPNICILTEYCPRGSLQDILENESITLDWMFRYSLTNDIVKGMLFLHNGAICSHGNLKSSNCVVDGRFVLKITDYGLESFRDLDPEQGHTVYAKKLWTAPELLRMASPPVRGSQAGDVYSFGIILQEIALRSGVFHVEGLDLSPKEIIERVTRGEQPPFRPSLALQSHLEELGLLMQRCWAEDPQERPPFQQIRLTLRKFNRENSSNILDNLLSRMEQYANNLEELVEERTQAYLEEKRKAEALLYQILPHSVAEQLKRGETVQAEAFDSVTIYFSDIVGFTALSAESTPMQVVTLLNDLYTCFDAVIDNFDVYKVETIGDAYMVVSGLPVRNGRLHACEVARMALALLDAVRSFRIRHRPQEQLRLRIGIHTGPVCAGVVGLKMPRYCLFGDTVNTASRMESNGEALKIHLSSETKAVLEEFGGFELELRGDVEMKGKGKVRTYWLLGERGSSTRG

EC50, fluorescence signal of rat NPR-A / CNGA2 (cGMP biosensor) / GCaMP6 CHO reporter cells (rat NPR-A): 1200 nM
EC50 on rNPRA reporter cells (rat NPR-A): > 1000 nM
B1: TPP-11156 (antibody, human IgG1, lambda)
heavy: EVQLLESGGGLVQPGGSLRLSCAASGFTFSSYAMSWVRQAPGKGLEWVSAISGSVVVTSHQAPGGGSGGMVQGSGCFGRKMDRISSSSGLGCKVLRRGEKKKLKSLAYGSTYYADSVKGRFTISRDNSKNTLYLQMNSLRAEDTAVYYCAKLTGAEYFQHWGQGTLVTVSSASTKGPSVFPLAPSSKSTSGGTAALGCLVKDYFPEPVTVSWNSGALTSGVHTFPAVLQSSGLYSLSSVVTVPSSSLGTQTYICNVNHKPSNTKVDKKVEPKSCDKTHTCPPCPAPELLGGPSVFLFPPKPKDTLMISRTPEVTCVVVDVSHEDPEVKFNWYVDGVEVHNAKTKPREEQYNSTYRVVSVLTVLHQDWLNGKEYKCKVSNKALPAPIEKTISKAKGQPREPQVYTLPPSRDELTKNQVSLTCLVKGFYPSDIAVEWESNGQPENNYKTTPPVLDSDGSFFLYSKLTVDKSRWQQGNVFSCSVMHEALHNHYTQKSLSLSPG
light: QSVLTQPPSVSGAPGQRVTISCTGSSSNIGAGYDVHWYQQLPGTAPKLLIYGNSNRPSGVPDRFSGSKSGTSASLAITGLQAEDEADYYCQSYDSSLSGVVFGGGTKLTVLGQPKAAPSVTLFPPSSEELQANKATLVCLISDFYPGAVTVAWKADSSPVKAGVETTTPSKQSNNKYAASSYLSLTPEQWKSHRSYSCQVTHEGSTVEKTVAPTECS

EC50, fluorescence signal of rat NPR-A / CNGA2 (cGMP biosensor) / GCaMP6 CHO reporter cells (rat NPR-A): 2300 nM
EC50 on rNPRA reporter cells (rat NPR-A): > 1000 nM
B2: TPP-9902 (antibody)
heavy: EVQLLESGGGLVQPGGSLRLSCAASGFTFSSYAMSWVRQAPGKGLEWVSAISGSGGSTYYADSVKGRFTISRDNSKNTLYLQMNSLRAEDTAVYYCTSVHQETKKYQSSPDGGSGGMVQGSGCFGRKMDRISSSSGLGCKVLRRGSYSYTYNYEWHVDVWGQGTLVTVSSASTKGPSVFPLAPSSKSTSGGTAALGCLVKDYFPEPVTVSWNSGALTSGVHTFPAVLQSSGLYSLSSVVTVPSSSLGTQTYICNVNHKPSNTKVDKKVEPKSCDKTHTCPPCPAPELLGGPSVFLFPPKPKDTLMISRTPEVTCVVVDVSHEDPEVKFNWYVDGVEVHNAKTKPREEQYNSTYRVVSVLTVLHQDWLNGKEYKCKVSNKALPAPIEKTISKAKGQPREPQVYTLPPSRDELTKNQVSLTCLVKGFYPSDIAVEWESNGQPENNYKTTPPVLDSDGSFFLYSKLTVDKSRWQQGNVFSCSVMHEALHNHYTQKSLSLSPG
light: B1 light

EC50, fluorescence signal of rat NPR-A / CNGA2 (cGMP biosensor) / GCaMP6 CHO reporter cells (rat NPR-A): 180 nM
B3: TPP-10992 (antibody, human IgG4 S228P, lambda)
heavy: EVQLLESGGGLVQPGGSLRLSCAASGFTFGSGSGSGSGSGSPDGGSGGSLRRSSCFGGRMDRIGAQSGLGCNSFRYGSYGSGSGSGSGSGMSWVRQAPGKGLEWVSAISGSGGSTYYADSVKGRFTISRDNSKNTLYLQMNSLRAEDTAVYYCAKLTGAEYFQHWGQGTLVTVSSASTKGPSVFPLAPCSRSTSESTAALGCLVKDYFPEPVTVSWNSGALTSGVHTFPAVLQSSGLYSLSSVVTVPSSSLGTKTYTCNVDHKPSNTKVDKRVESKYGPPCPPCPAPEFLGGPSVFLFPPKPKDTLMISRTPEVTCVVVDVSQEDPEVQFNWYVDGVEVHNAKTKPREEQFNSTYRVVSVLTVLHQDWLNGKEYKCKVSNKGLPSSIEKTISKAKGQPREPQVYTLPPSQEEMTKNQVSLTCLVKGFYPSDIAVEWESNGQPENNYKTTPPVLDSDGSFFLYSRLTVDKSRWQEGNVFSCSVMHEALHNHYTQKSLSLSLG
light: B1 light

EC50, luminescence signal of rat NPR-B reporter cells (rat NPR-B): 5.2 nM
B4: TPP-9465 (antibody)
heavy: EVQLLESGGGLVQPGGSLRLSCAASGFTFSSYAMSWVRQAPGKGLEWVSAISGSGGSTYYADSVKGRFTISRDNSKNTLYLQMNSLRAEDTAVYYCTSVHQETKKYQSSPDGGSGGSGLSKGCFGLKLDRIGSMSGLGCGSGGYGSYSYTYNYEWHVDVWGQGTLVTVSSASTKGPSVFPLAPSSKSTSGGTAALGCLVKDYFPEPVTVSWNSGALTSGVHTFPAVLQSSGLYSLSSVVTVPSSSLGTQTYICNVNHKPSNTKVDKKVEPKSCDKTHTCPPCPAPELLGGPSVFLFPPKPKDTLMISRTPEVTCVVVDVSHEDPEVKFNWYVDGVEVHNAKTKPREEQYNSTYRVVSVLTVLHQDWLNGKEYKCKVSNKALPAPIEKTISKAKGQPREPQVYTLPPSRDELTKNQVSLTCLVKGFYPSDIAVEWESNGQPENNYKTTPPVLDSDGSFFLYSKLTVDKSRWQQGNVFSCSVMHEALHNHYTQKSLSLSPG
light: B1 light

activity rcs (human NPRA): 20%
average rel logEC50 (human NPRA): -0.1 delta logEC50 vs TPP-5661
rel. activity rcs (human NPRA): -0.1 delta logEC50 vs TPP-5661
rel. logEC50 pcs 5 (human NPRA): -0.1 delta logEC50 vs TPP-5661
B5: TPP-10361 (antibody, human IgG1, lambda)
heavy: not shown
light: QSVLTQPPSVSGAPGQRVTISCTGSSSNIGAGYDVHWYQQLPGTAPKLLIYGSGSGSGSGSGSPDGGSGGSLRRSSCFGGRMDRIGAQSGLGCNSFRYGSYGSGGSGSGSGNRPSGVPDRFSGSKSGTSASLAITGLQAEDEADYYCQSYDSSLSGVVFGGGTKLTVLGQPKAAPSVTLFPPSSEELQANKATLVCLISDFYPGAVTVAWKADSSPVKAGVETTTPSKQSNNKYAASSYLSLTPEQWKSHRSYSCQVTHEGSTVEKTVAPTECS

activity rcs (human NPRA): 94%
average rel logEC50 (human NPRA): -0.2 delta logEC50 vs TPP-5661
rel. activity rcs (human NPRA): 0.1 delta logEC50 vs TPP-5661
rel. logEC50 pcs 2 (human NPRA): -0.6 delta logEC50 vs TPP-5661
rel. logEC50 pcs 3 (human NPRA): 0.2 delta logEC50 vs TPP-5661
rel. logEC50 pcs 4 (human NPRA): -0.3 delta logEC50 vs TPP-5661
B6: TPP-10355 (antibody, human IgG1, lambda)
heavy: not shown
light: QSVLTQPPSVSGAPGQRVTISCTGSSSNIGAGYDVHWYQQLPGTAPKLLIYGNSNRPSGVPDRFSGSKSGTSASLAITGLQAEDEADYYCAAWNPNPNPNPNPNGGSGGSLRRSSCFGGRMDRIGAQSGLGCNSFRYGSNPNPNPNPNPNVFGSGTKVTVLGQPKAAPSVTLFPPSSEELQANKATLVCLISDFYPGAVTVAWKADSSPVKAGVETTTPSKQSNNKYAASSYLSLTPEQWKSHRSYSCQVTHEGSTVEKTVAPTECS

EC50, fluorescence signal of rat NPR-A / CNGA2 (cGMP biosensor) / GCaMP6 CHO reporter cells (rat NPR-A): 11 nM
EC50 on rNPRA reporter cells (rat NPR-A): < 20 nM
B7: TPP-11157 (antibody, V domains shown)
VH: GFTFSSYAMSWVRQAPGKGLEWVSAISGSVVVTSHQAPGGGSGGGEKKKLKSLAYGSTYYADSVKGRFTISRDNSKNTLYLQMNSLRAEDTAVYYCAKLTGAEYFQHWGQGTLVTVSS
VL: QSVLTQPPSVSGAPGQRVTISCTGSSSNIGAGYDVHWYQQLPGTAPKLLIYGNSNRPSGVPDRFSGSKSGTSASLAITGLQAEDEADYYCQSYDSSLSGVVFGGGTKLTVLG

EC50, fluorescence signal of rat NPR-A / CNGA2 (cGMP biosensor) / GCaMP6 CHO reporter cells (rat NPR-A): 12 nM
EC50 on rNPRA reporter cells (rat NPR-A): < 20 nM
B8: TPP-11155 (antibody, V domains shown)
VH: EVQLLESGGGLVQPGGSLRLSCAASGFTFSSYAMSWVRQAPGKGLEWVSAISGSGGSTYYADSVKGRFTISRDNSKNTLYLQMNSLRAEDTAVYYCTSVHQETKKYQSSPDGGSYSYTYNYEWHVDVWGQGTLVTVSS
VL: B7 VL

EC50, fluorescence signal of rat NPR-A / CNGA2 (cGMP biosensor) / GCaMP6 CHO reporter cells (rat NPR-A): > 1900 nM
EC50 on rNPRA reporter cells (rat NPR-A): > 1000 nM
B9: TPP-11153 (antibody, V domains shown)
VH: EVQLLESGGGLVQPGGSLRLSCAASGFTFSSYAMSWVRQAPGKGLEWVSAISGSGGSTYYADSVKGRFTISRDNSKNTLYLQMNSLRAEDTAVYYCTSVHQETKKYQSSPDGGSGGSGGGSYSYTYNYEWHVDVWGQGTLVTVSS
VL: B7 VL

EC50, fluorescence signal of rat NPR-A / CNGA2 (cGMP biosensor) / GCaMP6 CHO reporter cells (rat NPR-A): 7 nM
EC50 on rNPRA reporter cells (rat NPR-A): < 20 nM
B10: TPP-11154 (antibody, V domains shown)
VH: EVQLLESGGGLVQPGGSLRLSCAASGFTFSSYAMSWVRQAPGKGLEWVSAISGSGGSTYYADSVKGRFTISRDNSKNTLYLQMNSLRAEDTAVYYCTSVHQETKKYQSSPDGGSGGGSYSYTYNYEWHVDVWGQGTLVTVSS
VL: B7 VL
